In the Human Domainome abundance scans (Beltran et al. 2025) one finds abundance fitness data, which are given here for 79 substances.

± gives the uncertainty stated by the source.

The series can be described thus: abundance fitness (aPCA) (normalised: wild type 0, dead -1); higher = more abundant; growth selection in yeast, the domain comes from the species named. The note with it: Homo sapiens.
With “NEDD4-like E3 ubiquitin-protein ligase WWP2 T471I, O00308”, the abundance fitness is -0.701 ± 0.05.
As for “NEDD4-like E3 ubiquitin-protein ligase WWP2 T471K, O00308”, the abundance fitness was -0.734 ± 0.065.
The result for “NEDD4-like E3 ubiquitin-protein ligase WWP2 T471L, O00308” reads -0.887 ± 0.043; that for “NEDD4-like E3 ubiquitin-protein ligase WWP2 T471M, O00308”, -0.798 ± 0.094.
For the substance “NEDD4-like E3 ubiquitin-protein ligase WWP2 T471N, O00308”, the abundance fitness was -0.81 ± 0.12.
Consider “NEDD4-like E3 ubiquitin-protein ligase WWP2 T471P, O00308”, for which the abundance fitness was -1.15 ± 0.13.
The figure for “NEDD4-like E3 ubiquitin-protein ligase WWP2 T471Q, O00308” is -0.291 ± 0.073; for “NEDD4-like E3 ubiquitin-protein ligase WWP2 T471R, O00308” it is -0.62 ± 0.05.
The figure for “NEDD4-like E3 ubiquitin-protein ligase WWP2 T471V, O00308” is -0.546 ± 0.054.
On to “NEDD4-like E3 ubiquitin-protein ligase WWP2 T471W, O00308”, for which the abundance fitness was -0.521 ± 0.05.
“NEDD4-like E3 ubiquitin-protein ligase WWP2 T471Y, O00308”: the abundance fitness is -0.786 ± 0.14.
As for “NEDD4-like E3 ubiquitin-protein ligase WWP2 T483A, O00308”, the abundance fitness is -0.041 ± 0.034.
On to “NEDD4-like E3 ubiquitin-protein ligase WWP2 T483C, O00308”, for which the abundance fitness is -0.005 ± 0.063.
As for “NEDD4-like E3 ubiquitin-protein ligase WWP2 T483D, O00308”, the abundance fitness was -0.039 ± 0.06.
On to “NEDD4-like E3 ubiquitin-protein ligase WWP2 T483E, O00308”, for which the abundance fitness was -0.032 ± 0.057.
The figure for “NEDD4-like E3 ubiquitin-protein ligase WWP2 T483F, O00308” is -0.377 ± 0.072.
With “NEDD4-like E3 ubiquitin-protein ligase WWP2 T483G, O00308”, the abundance fitness is -0.01 ± 0.032.
For the substance “NEDD4-like E3 ubiquitin-protein ligase WWP2 T483I, O00308”, the abundance fitness is -0.056 ± 0.038.
The result for “NEDD4-like E3 ubiquitin-protein ligase WWP2 T483K, O00308” reads 0.084 ± 0.071; that for “NEDD4-like E3 ubiquitin-protein ligase WWP2 T483L, O00308”, -0.039 ± 0.044.
“NEDD4-like E3 ubiquitin-protein ligase WWP2 T483M, O00308”: the abundance fitness was -0.073 ± 0.055.
For the substance “NEDD4-like E3 ubiquitin-protein ligase WWP2 T483N, O00308”, the abundance fitness was -0.247 ± 0.076.
“NEDD4-like E3 ubiquitin-protein ligase WWP2 T483P, O00308”: the abundance fitness is -0.054 ± 0.071.
For the substance “NEDD4-like E3 ubiquitin-protein ligase WWP2 T483Q, O00308”, the abundance fitness is -0.106 ± 0.071.
Consider “NEDD4-like E3 ubiquitin-protein ligase WWP2 T483R, O00308”, for which the abundance fitness was -0.121 ± 0.056.
The result for “NEDD4-like E3 ubiquitin-protein ligase WWP2 T483S, O00308” reads 0.004 ± 0.042; that for “NEDD4-like E3 ubiquitin-protein ligase WWP2 T483V, O00308”, -0.03 ± 0.052; that for “NEDD4-like E3 ubiquitin-protein ligase WWP2 T483W, O00308”, -0.163 ± 0.063.
As to “NEDD4-like E3 ubiquitin-protein ligase WWP2 T483Y, O00308”, the abundance fitness was -0.123 ± 0.059.
On to “NEDD4-like E3 ubiquitin-protein ligase WWP2 V459A, O00308”, for which the abundance fitness was -0.107 ± 0.051.
The figure for “NEDD4-like E3 ubiquitin-protein ligase WWP2 V459C, O00308” is -0.11 ± 0.065.
The substance “NEDD4-like E3 ubiquitin-protein ligase WWP2 V459D, O00308” registered an abundance fitness of 0.05 ± 0.062.
The result for “NEDD4-like E3 ubiquitin-protein ligase WWP2 V459E, O00308” reads 0.085 ± 0.036; that for “NEDD4-like E3 ubiquitin-protein ligase WWP2 V459F, O00308”, -0.387 ± 0.094; that for “NEDD4-like E3 ubiquitin-protein ligase WWP2 V459G, O00308”, -0.111 ± 0.051.
Regarding “NEDD4-like E3 ubiquitin-protein ligase WWP2 V459H, O00308”, the abundance fitness was -0.103 ± 0.064.
On to “NEDD4-like E3 ubiquitin-protein ligase WWP2 V459I, O00308”, for which the abundance fitness is -0.106 ± 0.072.
As to “NEDD4-like E3 ubiquitin-protein ligase WWP2 V459K, O00308”, the abundance fitness is -0.077 ± 0.063.
The figure for “NEDD4-like E3 ubiquitin-protein ligase WWP2 V459L, O00308” is -0.073 ± 0.04.
On to “NEDD4-like E3 ubiquitin-protein ligase WWP2 V459M, O00308”, for which the abundance fitness is -0.07 ± 0.05.
With “NEDD4-like E3 ubiquitin-protein ligase WWP2 V459N, O00308”, the abundance fitness was -0.024 ± 0.076.
As for “NEDD4-like E3 ubiquitin-protein ligase WWP2 V459P, O00308”, the abundance fitness was -0.878 ± 0.037.
Turning to “NEDD4-like E3 ubiquitin-protein ligase WWP2 V459Q, O00308”, the abundance fitness is -0.019 ± 0.069.
The result for “NEDD4-like E3 ubiquitin-protein ligase WWP2 V459R, O00308” reads -0.127 ± 0.051.
The result for “NEDD4-like E3 ubiquitin-protein ligase WWP2 V459S, O00308” reads -0.097 ± 0.045.
The figure for “NEDD4-like E3 ubiquitin-protein ligase WWP2 V459T, O00308” is -0.025 ± 0.059; for “NEDD4-like E3 ubiquitin-protein ligase WWP2 V459W, O00308” it is -0.18 ± 0.07.
As for “NEDD4-like E3 ubiquitin-protein ligase WWP2 V459Y, O00308”, the abundance fitness was -0.335 ± 0.071.
The result for “NEDD4-like E3 ubiquitin-protein ligase WWP2 V463A, O00308” reads -0.136 ± 0.036.
The result for “NEDD4-like E3 ubiquitin-protein ligase WWP2 V463C, O00308” reads -0.307 ± 0.086.
With “NEDD4-like E3 ubiquitin-protein ligase WWP2 V463E, O00308”, the abundance fitness was -0.16 ± 0.056.
The result for “NEDD4-like E3 ubiquitin-protein ligase WWP2 V463F, O00308” reads -0.288 ± 0.039.
In the case of “NEDD4-like E3 ubiquitin-protein ligase WWP2 V463G, O00308”, the abundance fitness was -0.972 ± 0.039.
The result for “NEDD4-like E3 ubiquitin-protein ligase WWP2 V463H, O00308” reads -0.422 ± 0.093.
Regarding “NEDD4-like E3 ubiquitin-protein ligase WWP2 V463I, O00308”, the abundance fitness was -0.165 ± 0.072.
With “NEDD4-like E3 ubiquitin-protein ligase WWP2 V463K, O00308”, the abundance fitness was -0.466 ± 0.062.
The figure for “NEDD4-like E3 ubiquitin-protein ligase WWP2 V463L, O00308” is -0.041 ± 0.035; for “NEDD4-like E3 ubiquitin-protein ligase WWP2 V463N, O00308” it is -0.386 ± 0.056; for “NEDD4-like E3 ubiquitin-protein ligase WWP2 V463P, O00308” it is -1.29 ± 0.47.
As to “NEDD4-like E3 ubiquitin-protein ligase WWP2 V463Q, O00308”, the abundance fitness is -0.129 ± 0.08.
The result for “NEDD4-like E3 ubiquitin-protein ligase WWP2 V463R, O00308” reads -0.352 ± 0.038; that for “NEDD4-like E3 ubiquitin-protein ligase WWP2 V463T, O00308”, -0.209 ± 0.069; that for “NEDD4-like E3 ubiquitin-protein ligase WWP2 V463W, O00308”, -0.414 ± 0.068.
Take “NEDD4-like E3 ubiquitin-protein ligase WWP2 V463Y, O00308”: the abundance fitness was -0.26 ± 0.076.
For “NEDD4-like E3 ubiquitin-protein ligase WWP2 W450C, O00308”, the abundance fitness is -0.446 ± 0.051.
As for “NEDD4-like E3 ubiquitin-protein ligase WWP2 W450D, O00308”, the abundance fitness is -0.552 ± 0.041.
On to “NEDD4-like E3 ubiquitin-protein ligase WWP2 W450E, O00308”, for which the abundance fitness was -0.492 ± 0.042.
Turning to “NEDD4-like E3 ubiquitin-protein ligase WWP2 W450F, O00308”, the abundance fitness is -0.026 ± 0.075.
“NEDD4-like E3 ubiquitin-protein ligase WWP2 W450H, O00308”: the abundance fitness is -0.464 ± 0.085.
As for “NEDD4-like E3 ubiquitin-protein ligase WWP2 W450I, O00308”, the abundance fitness is -0.197 ± 0.083.
As for “NEDD4-like E3 ubiquitin-protein ligase WWP2 W450K, O00308”, the abundance fitness was -0.598 ± 0.084.
The result for “NEDD4-like E3 ubiquitin-protein ligase WWP2 W450L, O00308” reads -0.421 ± 0.048.
Turning to “NEDD4-like E3 ubiquitin-protein ligase WWP2 W450M, O00308”, the abundance fitness is -0.4 ± 0.071.
For the substance “NEDD4-like E3 ubiquitin-protein ligase WWP2 W450N, O00308”, the abundance fitness is -0.581 ± 0.099.
Take “NEDD4-like E3 ubiquitin-protein ligase WWP2 W450R, O00308”: the abundance fitness was -0.735 ± 0.047.
The figure for “NEDD4-like E3 ubiquitin-protein ligase WWP2 W450S, O00308” is -0.676 ± 0.057.
The figure for “NEDD4-like E3 ubiquitin-protein ligase WWP2 W450T, O00308” is -0.475 ± 0.075.
The result for “NEDD4-like E3 ubiquitin-protein ligase WWP2 W450V, O00308” reads -0.175 ± 0.033; that for “NEDD4-like E3 ubiquitin-protein ligase WWP2 W450Y, O00308”, -0.211 ± 0.081.
